Data from article PMC9340783.

How the values were obtained:
hGITR ECD hFc (human) [1] = molecular target: hGITR ECD hFc (human) (UniProt Q9Y5U5); experiment: SPR
[2] = molecular target: human GITR on 293F‐hGITR cells (human) (UniProt Q9Y5U5)
hGITR ECD hFc (human) [3] = molecular target: hGITR ECD hFc (human) (UniProt Q9Y5U5); experiment: SPR; Biacore T200; hGITR ECD hFc immobilised on a Series S CM5 chip; antibody 0, 3.125, 6.25, 12.5, 25 and 50 nM; association 180 s, dissociation 600 s
[4] = molecular target: cynoGITR ECD hFc (cynomolgus); experiment: ELISA; indirect ELISA; antigen hFc fusion protein coated on 96-well plates (1 μg·mL^−1 overnight at 4 °C in Fig. 3B), antibody added, detected with anti-rat IgG/hIgG-peroxidase antibody
hGITR ECD hFc (human) [5] = molecular target: hGITR ECD hFc (human) (UniProt Q9Y5U5); experiment: as above
[6] = molecular target: human GITR on 293F‐hGITR cells (human) (UniProt Q9Y5U5); experiment: flow cytometry on cells; 293F‐hGITR or 293F‐cynoGITR cells incubated with antibodies at 4 °C for 1 h, fluorescent anti-rat/human secondary antibody; EC50 of MFI curve
[7] = molecular target: cynoGITR on 293F‐cynoGITR cells (cynomolgus); experiment: as above

Chain of hGITR ECD hFc (human) (Q9Y5U5 other isoform, or with tags, fused parts or gaps): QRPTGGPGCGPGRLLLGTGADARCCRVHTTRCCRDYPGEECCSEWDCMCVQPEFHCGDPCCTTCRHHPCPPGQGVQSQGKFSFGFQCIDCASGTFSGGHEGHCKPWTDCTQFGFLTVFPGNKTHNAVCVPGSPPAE
Chain of human GITR on 293F‐hGITR cells (human) (Q9Y5U5 26-241): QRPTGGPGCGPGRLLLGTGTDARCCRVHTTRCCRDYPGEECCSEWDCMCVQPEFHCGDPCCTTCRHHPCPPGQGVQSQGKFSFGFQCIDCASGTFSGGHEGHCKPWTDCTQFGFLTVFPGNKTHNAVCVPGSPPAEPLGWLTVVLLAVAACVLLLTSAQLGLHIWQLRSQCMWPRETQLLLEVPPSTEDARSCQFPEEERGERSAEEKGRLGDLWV

| koff (hGITR ECD hFc (human) [1]) [s⁻¹] | NF‐ĸB luciferase reporter assay, Crosslinking, EC50 [2] [nM] | NF‐ĸB luciferase reporter assay, Crosslinking, Top ratio [2] [fold] | NF‐ĸB luciferase reporter assay, No crosslinking, EC50 [2] [nM] | NF‐ĸB luciferase reporter assay, No crosslinking, Top ratio [2] [fold] | T‐cell activation (IFN‐γ secretion), Donor#1, EC50 [2] [nM] | T‐cell activation (IFN‐γ secretion), Donor#2, EC50 [2] [nM] | T‐cell activation (IFN‐γ secretion), Donor#3, EC50 [2] [nM] | Kd (hGITR ECD hFc (human) [3]) [nM] | EC50 [4] [nM] | EC50 (hGITR ECD hFc (human) [5]) [nM] | EC50 [6] [nM] | EC50 [7] [nM] | Substance |
| --- | --- | --- | --- | --- | --- | --- | --- | --- | --- | --- | --- | --- | --- |
| 0.0044 |  |  |  |  |  |  |  |  |  |  |  |  | Tab6C8 |
|  | 0.336 | 32 | 0.829 | 14 | 0.0106 | 0.00559 | 0.00681 | 3.82 | 1.12 | 0.954 | 0.027 | 0.007 | Tab6C8 (antibody) |
